Laboratory results from publication PMC10754444.

Molecular target: ubiquitin (UniProt P0CG48)

“PRRSV DV PLP2_(385-578) V518S/V520A (domain or fragment)” was tested, and the Kcat/Km of Ub-AMC hydrolysis in vitro (substrate Ub-AMC, R&D Systems; 1.0 μM enzyme; 25°C) was 0.000133 µM⁻¹ s⁻¹.

With “PRRSV DV PLP2_(385-578) V518S (domain or fragment)” the Kcat/Km of Ub-AMC hydrolysis in vitro (substrate Ub-AMC, R&D Systems; 0.5 μM enzyme; 25°C) was 0.0011 µM⁻¹ s⁻¹.

With “PRRSV DV PLP2_(385-578) V520A (domain or fragment)” the Kcat/Km of Ub-AMC hydrolysis in vitro (substrate Ub-AMC, R&D Systems; 1.0 μM enzyme; 25°C) was 0.00019 µM⁻¹ s⁻¹.

“wt PRRSV DV PLP2_(385-578) (domain or fragment)” gave a Kcat/Km of Ub-AMC hydrolysis in vitro (substrate Ub-AMC, R&D Systems; 25°C) of 0.005 µM⁻¹ s⁻¹.
